Source: PMC2928128
pKd: −log10 of the molar value.

Experiments:
Assay in all cases: SPR
[1] = biological target: GST-CDH23 + exon68ΔITEL (residues 847-1110)
[2] = biological target: GST-CDH23Δexon68 (cytoplasmic region of cadherin-23 lacking the exon68-encoded sequence, residues 847-1079)
[3] = biological target: GST-CDH23Δexon68ΔITEL (residues 847-1075)
[4] = biological target: GST-CDH23 + exon68 (cytoplasmic region of cadherin-23 including the exon68-encoded sequence, residues 847-1114)

harmonin-a PDZ3 domain (residues 434-545) (domain or fragment), sequence (Q9ES64 434-545): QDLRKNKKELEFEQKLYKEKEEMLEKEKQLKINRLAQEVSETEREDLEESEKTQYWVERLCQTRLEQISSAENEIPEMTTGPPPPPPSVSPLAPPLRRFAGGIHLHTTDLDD

pKd [1]: < 5.30
pKd [2]: < 5.30
pKd [3]: < 5.30
pKd [4]: < 5.30
Substance: harmonin-a PDZ3 domain (residues 434-545) (domain or fragment)
